According to patent US12703930B2, “Systems and methods for identification of MHC-I peptide epitopes” (THE REGENTS OF THE UNIVERSITY OF CALIFORNIA, priority 2020, dated 2026):
Entries after “also recorded” stand apart in the source; their conditions may differ.

How the values were obtained:
[1] = test system: murine cells expressing the B4.3.2 TCR, DMF5 human T cells expressing the MART-1 TCR, NY-ESO-1 human T cells expressing the NY-ESO-1 TCR; experiment: flow cytometry staining of TCR-expressing cells with pMHC-I tetramers; type: cell-based; details: TAPBPR at up to 1:100 molar ratio with MHC-I
Protocol: Flow cytometry was performed using commercially available tetramers prepared by currently available methods (“conventional”), as well as by the disclosed methods involving TAPBPR peptide exchange using a stoichiometric amount of TAPBPR (“exchanged stoichiometric”), a catalytic amount of TAPBPR (1:100 TAPBPR: MHC-I) (“exchanged catalytic”) or a mismatched peptide. […]. Tetramers prepared by the disclosed methods performed similarly to tetramers commercially produced using conventional methods.
FIG. 7C illustrates a titration of P18410/H-2D^d binding to B.4.2.3 cells (top), HLA-A*2:01/MART-1 binding to DMF5 cells (middle) and HLA-A*2:01/NY-ESO-1 peptide binding to NY-ESO-1 cells (bottom). The binding compares commercially available pMHC-I tetramers prepared using conventional methods (refolded) with pMHC-I tetramers prepared using the disclosed methods. […]. Data shown is representative of triplicate assays and error-bars are standard deviation from the mean.
Tetramer formation The procedure for production of peptide loaded tetramers using TAPBPR mediated exchange is described in See, e.g., Overall et al., “High Throughput pMHC-I Tetramer Library Production Using Chaperone Mediated Peptide Exchange,” bioRxiv, doi:10.1101/653477 (2019), which is hereby incorporated by reference in its entirety herein. […]

goldilocks/HLA-A*02:01 = goldilocks/HLA-A*02:01 (Homo sapiens, UniProt P04439); experiment: native gel electrophoresis assay of TAPBPR-mediated peptide exchange on p*MHC-I; details: overnight incubation, excess peptide of interest, TAPBPR:MHC molar ratio 1:1 down to 1:1000
TAPBPR/HLA-A02 complexes = biological target: T1, TAPBPR/HLA-A02 complexes (Homo sapiens, UniProt P04439); experiment: native gel electrophoresis: release of HLA-A02 from tetramerized TAPBPR/HLA-A02 complexes by peptide; type: binding; details: biotinylated TAPBPR/HLA-A02 tetramerized with Streptavidin-PE; TAX 25, 125 or 2500 pmol; P18-I10 2500 pmol; 12% acrylamide gel
T1 construct: Plasmid DNA encoding the luminal domain of class I MHC (MHC-I) heavy chains H2-D^d, HLA-A*02:01; made in house
Excerpt: The peptide receptive MHC-I complexes were isolated by gel filtration and tetramerized with Streptavidin-PE.

Substance	peptide exchange catalysed by TAPBPR (FIGS. 7A-7C) [1]	peptide exchange on goldilocks/HLA-A*02:01 (formation of pMHC species) (goldilocks/HLA-A*02:01)	release of HLA-A02 proteins from the TAPBPR/HLA-A02 complexes (native gel) (TAPBPR/HLA-A02 complexes)
TAPBPR: molecular chaperone; recombinant luminal domain expressed in Drosophila S2 cells	catalyzes efficient peptide exchange when present at up to 1:100 molar ratio with MHC-I	complete peptide exchange; also recorded: catalyzes efficient peptide exchange when present at up to 1:1000 molar ratio with MHC-I	
RGPGRAFVTI [P18-I10]			showed no HLA-A02 proteins
